# Test results from patent publication US20140329228A1 (Ushio Denki Kabushiki Kaisha, priority 2011, published 2014).
# Marks after values point to notes of the source that are not given here.
# B1: Anti-Ketamine: same-color double-label Fab complex of anti-ketamine antibody; TAMRA-labeled VL (SEQ ID NO: 31) and VH (SEQ ID NO: 32) (antibody, V domains shown)
# VH: QVQLKESGPGLVAPSQSLSITCTVSGFALTGYGVNWVRQPPGKGLEWLGMIWGDGNTDYNSALKSRLSISKDNSKSQVFLKMNSLQTDDTARYYCARGNGYFYVLDYWGQGTSVTVSS
# VL: QAVVTQESALTTSPGETVTLTCRSSTGAVTTSNYANWVQEKPDHLFTGLIGGTNNRAPGVPARFSGSLIGDKAALTITGAQTEDEAIYFCSLWYSNHLVFGGGTKLTVLGQ
# modifications: Fab; TAMRA labels; Keta-VH-32; Keta-VL-31
# B2: Anti-Cocaine: same-color double-label Fab complex of anti-cocaine antibody; TAMRA-labeled VL (SEQ ID NO: 27) and VH (SEQ ID NO: 28) (antibody, V domains shown)
# VH: DVTLQESGGGLVQPGGSMKLSCAASGFTFSDAWVDWVRQSPGKGLEWVAEIRNKANNHATKYTESVKGRFTISRDDSKSSVYLQMNSLRAEDTGIYYCTSVPQLGRGFAYWGQGTLVTVSS
# VL: DIVMTQAAPSVPVTPGESVSISCRSSKSLLHSNGYTYLHWFLQRPGQSPQLLIYRVSNLASGVPDRFSGSGSGTAFTLRFSRVEAEDVGVYYCMQHLEYPFTFGSGTKLEIKR
# modifications: Fab; TAMRA labels; Coca-VH-28; Coca-VL-27
# B3: Anti-cotinine: same-color double-label Fab complex of anti-cotinine antibody; TAMRA-labeled VL (SEQ ID NO: 19) and VH (SEQ ID NO: 20) (antibody, V domains shown)
# VH: QQQLVESGGRLVTPGGSLTLTCTASGFSLNNYWMSWVRQAPGKGLEWIGDIHGNRGFNYHASWAKGRFTVSRTSTTVDLRMTSLTTEDTAIYFCARADDSGSHDIWGPGTLVTVSS
# VL: ELDLTQTPSPVSAAVGDTVTINCQSSQSVYSAKLSWYQQKPGQPPKLLIYYGSTLASGVPSRFKGSGSGTQFSLTISDVQCADAATYYCQGTYYGPDWYFAFGGGTEVVVKR
# modifications: Fab; TAMRA labels; Coti-VH-20; Coti-VL-19
# B4: Anti-Clenbuterol: different-color double-label Fab complex of anti-clenbuterol antibody; CR110-labeled VL (SEQ ID NO: 15)+Cκ, TAMRA-labeled VH (SEQ ID NO: 16)+CH1 (antibody, V domains shown)
# VH: QVKLQESGGGLVKPRGSLKLSCAASGFTFSSYDMSWVRQTPEKRLEWVASIRSGGYYTLYPDSVKGRFTISRDNVKNTLYLQMSSLRSEDTAMYYCSRDGNDEYFDVWGAGTTVTVSS
# VL: DIELTQSPAILSASPGEKVTMTCSANSSVSYMHWYQQKSRTSPKLWIYDTSKLASGVPGRFSGSGSGNSYSLTISSMEAEDVATYYCFQGSKYPFTFGSGTRLEIKR
# modifications: Ckappa and CH1 without entry; CR110, TAMRA labels; Clen-VH-16; Clen-VL-15
# B5: Anti-Ractopamine: same-color double-label Fab complex of anti-ractopamine antibody; TAMRA-labeled VL (SEQ ID NO: 17) and VH (SEQ ID NO: 18) (antibody, V domains shown)
# VH: DVQLVESGPGLVKPSQSLSLTCTVTGYSITSDYAWNWIRQFPGNKLEWMGYIFYSGSTSYNPSLKSRISITRDTSKNQFFLQLNSVTTEDTATYFCARLAYYYDYDGYAMDYWGQGTSVTVSS
# VL: DILMTQTPLSLPVSLGDQASISCRSSQNIVHSDGNTYLEWYLQKPGQSPKLLISKVSNRFSGVPDRFSGSGSGTDFTLKISRVEAEDLGIYYCFQGSHVPWTFGGGTKLEIKR
# modifications: Fab; TAMRA labels; Ract-VH-18; Ract-VL-17
# B6: Anti-THC: same-color double-label Fab complex of anti-THC antibody; TAMRA-labeled VL (SEQ ID NO: 29) and VH (SEQ ID NO: 30) (antibody, V domains shown)
# VH: EVKLVESGGGLVKPGGSLKLSCAASGFTFNNYVMVWLRQTPEKRLEWVASISRGGSTYYPDSVKGRFTISRDNARNILYLQMSSLRSEDTAMYYCVRGTTIVAGDVWGAGTTVTVSS
# VL: DIVLTQSPTTMAASPGEKITITCSASSSISSNYLHWYQQKPGFSPKLLIYRTSNLASGVPARFSGSGSGTSYSLTIGTMEAEDVATYYCQQGSSIPLTFGAGTKLELKR
# modifications: Fab; TAMRA labels; THC-VH-30; THC-VL-29
# B7: CR110_TAMRA: different-color double-label Fab complex of anti-SA antibody; CR110-labeled VH (SEQ ID NO: 12)+CH1, TAMRA-labeled VL (SEQ ID NO: 10)+Cκ (antibody, V domains shown)
# VH: EVQLLESGGGLVQPGGSLRLSCAASGFTFSSYAMSWVRQAPGKGLEWVSHISPYGANTRYADSVKGRFTISRDNSKNTLYLQMNSLRAEDTAVYYCAKGLRAFDYWGQGTLVTVSS
# VL: DIQMTQSPSSLSASVGDRVTITCRASQSISSYLNWYQQKPGKAPKLLIYRASLLQSGVPSRFSGSGSGTDFTLTISSLQPEDFATYYCQQGRDRPATFGQGTKVEIKR
# modifications: CH1 and Ckappa constant domains; CR110 and TAMRA labels; anti-SA antibody VH; anti-SA antibody VL
# Assays:
# Type in all cases: binding
# [1] = Fluorescence enhancement of fluoro-labeled Fab complex / scFv with ketamine; conditions: for Fluorescence enhancement: 1.0 mg/mL Ketamine versus absence of antigen, Ex/Em 530/580
# [2] = Fluorescence enhancement of fluoro-labeled Fab complex with MDA; conditions: antigen MDA 100 μg/mL versus absence of antigen
# [3] = Fluorescence enhancement of fluoro-labeled Fab complex / scFv with cocaine; conditions: antigen Cocaine 100 μg/mL versus absence of antigen
# [4] = Fluorescence enhancement of fluoro-labeled Fab complex / scFv with morphine; conditions: antigen Morphine 100 μg/mL versus absence of antigen
# [5] = Measurement of cotinine using fluoro-labeled Fab complex; conditions: 3.5 μg/mL Cotinine versus absence of antigen, Ex/Em 530/580
# [6] = Measurement of clenbuterol using fluoro-labeled Fab complex; conditions: 16 μg/mL Clenbuterol versus absence of antigen; Ex/Em 480/530
# [7] = Measurement of ractopamine using fluoro-labeled Fab complex; conditions: 3.4 μg/mL Ractopamine versus absence of antigen, Ex/Em 530/580
# [8] = Measurement of cannabinoid component THC using fluoro-labeled Fab complex; conditions: 100 μg/mL THC versus absence of antigen, Ex/Em 530/580
# [9] = target: HSA (Homo sapiens, UniProt P02768); assay: Fluorescence emission spectrum measurement, different-color double-label anti-SA Fab complex with HSA; conditions: antigen HSA; ratio to no antigen
# Excerpt: Similarly, the different-color double-label Fab complex of the anti-SA antibody prepared in Example 1 comprising a polypeptide containing a heavy chain variable region (VH; SEQ ID NO: 12) of an anti-SA antibody labeled with a CR110, TAMRA, or ATTO 655 fluorescent dye and an antibody heavy chain constant domain (CH1; SEQ ID NO: 6), and a polypeptide containing a light chain variable region (VL; SEQ ID NO: 10) of an anti-SA antibody labeled with a dye differing from the above dye and an antibody light chain constant domain (Cκ; SEQ ID NO: 4) was reacted with antigenic HSA (0 to 100 μM), and then fluorescence intensity was measured. The ratio of the fluorescence intensity at each antigen concentration to the fluorescence intensity when no antigen was present was designated as the “fluorescence intensity ratio” and is shown in the graphs of FIG. 10. […]
# Moreover, when irradiated with excitation light with a wavelength of 530 nm, fluorescence intensity ratios obtained at a fluorescence wavelength of about 530 nm in the case of CR110_TAMRA was higher than those of no_TAMRA, because of the quenching effect due to the interaction between the fluorescent dyes. […]
molecule,measurement,setting,value
B1,Fluorescence enhancement,[1],2.0*^2
same,Fluorescence enhancement,[1]; listed as anti-ketamine,2.0
B2,Fluorescence enhancement in the presence of 100 μg/mL antigen,[1]; antigen Ketamine 100 μg/mL versus absence of antigen,0.9
same,Fluorescence enhancement in the presence of 100 μg/mL antigen,[2],0.9
same,Fluorescence enhancement in the presence of 100 μg/mL antigen,[3],3.7
same,Fluorescence enhancement in the presence of 100 μg/mL antigen,[4],0.9
B3,Fluorescence enhancement,[5],1.9*^2
same,Fluorescence enhancement,[5]; listed as anti-cotinine,1.9
B4,Fluorescence enhancement,[6],1.5
B5,Fluorescence enhancement,[7],2.3*^1
same,Fluorescence enhancement,[7]; listed as anti-ractopamine,2.3
B6,Fluorescence enhancement,[8],1.3*^1
same,Fluorescence enhancement,[8]; listed as anti-THC,1.3
B7,maximum fluorescence enhancement,[9],75 fold
